How the values were obtained:
Kv2.1 surface clusters = biological target: T1, Kv2.1 surface clusters (Rattus norvegicus, UniProt P15387); test: Kv2.1 surface cluster density in live Kv2.1-GFP-transfected cortical neurons treated with TAT-linked peptides; type: cell-based
T1 construct: expressed in transfected cells; host or cells: primary rat cortical neurons (E16-17 Sprague-Dawley), Lipofectamine 2000
T1 sequence (P15387 1-857): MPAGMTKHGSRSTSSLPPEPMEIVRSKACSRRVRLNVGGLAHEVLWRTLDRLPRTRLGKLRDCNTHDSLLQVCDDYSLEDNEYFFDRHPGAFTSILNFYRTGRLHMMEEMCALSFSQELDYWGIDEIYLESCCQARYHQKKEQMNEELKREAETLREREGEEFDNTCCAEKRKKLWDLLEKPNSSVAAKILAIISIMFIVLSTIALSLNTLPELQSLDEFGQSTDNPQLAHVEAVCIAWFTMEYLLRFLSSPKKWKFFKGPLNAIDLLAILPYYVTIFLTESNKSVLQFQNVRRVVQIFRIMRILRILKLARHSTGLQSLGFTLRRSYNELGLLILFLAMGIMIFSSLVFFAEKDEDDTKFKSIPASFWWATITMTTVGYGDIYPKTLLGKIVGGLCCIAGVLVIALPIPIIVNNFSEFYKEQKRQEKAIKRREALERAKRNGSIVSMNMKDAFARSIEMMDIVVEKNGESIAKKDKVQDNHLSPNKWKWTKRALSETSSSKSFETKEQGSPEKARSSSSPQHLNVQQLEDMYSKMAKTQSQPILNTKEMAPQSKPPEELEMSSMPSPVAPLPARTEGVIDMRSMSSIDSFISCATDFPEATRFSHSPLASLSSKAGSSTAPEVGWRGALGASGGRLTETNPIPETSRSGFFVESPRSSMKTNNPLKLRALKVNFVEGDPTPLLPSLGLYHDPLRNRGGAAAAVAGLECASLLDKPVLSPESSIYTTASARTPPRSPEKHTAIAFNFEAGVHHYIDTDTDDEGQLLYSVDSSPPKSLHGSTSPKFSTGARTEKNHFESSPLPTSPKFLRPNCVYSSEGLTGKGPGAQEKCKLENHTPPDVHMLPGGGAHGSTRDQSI
Procedure: In vitro experiments utilized primary cortical neuronal cultures prepared from embryonic day 16-17 Sprague-Dawley rats of either sex in a protocol described previously (McCord et al., J Physiol (Lond). 592: 3511-3521, 2014). Timed-pregnant rats (Charles River Laboratories, Wilmington, Mass.) were sacrificed by CO2 inhalation. Embryonic cortices were dissociated with trypsin (0.6 mg/mL) and cells plated in sterile 6-well plates on poly-L-ornithine-coated glass coverslips at a density of 670,000 cells per well. Cytosine arabinoside (1-2 μM) was utilized to inhibit non-neuronal proliferation on day 14 in vitro (DIV); cultures were utilized at 21-25 DIV.
; Invitrogen, Carlsbad, Calif.). […]; Thermo Fisher Scientific, Waltham, Mass.). […]. Cultures were utilized 18-24 hours following transfection. cDNA amounts for each transfection experiment are described below for each figure. FIG. 1: 0.375 μg/well Kv2.1-GFP plasmid, 0.495 μg/well pcDNA3 vector plasmid, and 0.63 μg/well of either DP-1 or Sc-1, or Kv2.2 CT-expressing plasmid. FIGS. 2, 8, 9, 10, 12: 0.375 μg/well Kv2.1-GFP plasmid, 0.15 μg/well tdTomato plasmid (from Gerhart Ryffel; Addgene plasmid #30530), and 0.975 μg/well pcDNA3 vector plasmid.
To analyze Kv2.1 distribution in live primary cortical neurons, cells were transfected with both a tdTomato construct and a GFP-tagged Kv2.1 construct (O'Connell, et al., J Neurosci. 26: 9609-9618, 2006) and imaged on a Nikon A1+ confocal microscope (Nikon, Tokyo, Japan). Cells were chosen at random by looking only at the tdTomato signal (561 nm), in order to avoid bias. At least three separate culture dates were used per experiment and three coverslips were transfected per condition each time. For these experiments, “n” refers to the total number of cells imaged. Five to 15 optical sections (0.5 μm) capturing the cell surface were obtained of single cells at 60× magnification (Schulien et al., J Physiol (Lond). 594: 2647-2659, 2016), creating a maximum-intensity projection (MAX-IP) of Kv2.1-GFP distribution. To analyze Kv2.1 distribution in the cerebral cortex of fixed brain slices, 51-54 image fields were obtained at 60× magnification across 18 sections from three fixed mouse brains per treatment (total of 6 animals). Image fields were captured by first focusing on an area of superficial cortex closest to the cover glass. Next, 24 optical sections (0.5 μm) were obtained moving deeper into the tissue in order to produce a 12 μm maximum-intensity projection for analysis of Kv2.1 distribution. Laser power, HV (gain), offset, pinhole size, and all camera parameters were kept identical between all samples in a given experiment. Nikon Instruments Software Advanced Research (NIS-Elements AR) was utilized to analyze GFP-tagged Kv2.1 channel cluster distribution. For live images of transfected neurons, object count parameters were customized to define a Kv2.1 cluster as an area of high intensity GFP fluorescence (compared to background), measuring 0.05 μm^2 or larger (Schulien et al., J Physiol (Lond). 594: 2647-2659, 2016). Kv2.1 cluster density was calculated by normalizing the number of Kv2.1 clusters counted to the somatic area of each neuron (#Kv2.1 clusters/μm^2). Due to high variability in GFP-Kv2.1 expression between individual neurons, intensity thresholding required cell-specific local-background subtraction. In each neuron analyzed, two populations on Kv2.1-GFP expression were first noted—(a) highly localized signals of clustered Kv2.1 channels, and (b) diffuse background staining that represents freely-dispersed, conducting Kv2.1 channels on the plasma membrane. A small region of interest (ROI) within region (b) was set as the background subtraction standard of the image, creating an optimal signal-to-noise ratio for clustered Kv2.1 channels. […]

[1] = biological target: T2, Kv2.1-mediated potassium currents (Rattus norvegicus, UniProt P15387); test: Whole-cell voltage clamp of Kv2.1-mediated potassium current densities with or without TBOA; type: cell-based; details: voltage step from -80 mV to 30 mV, mean±SEM (FIG. 4A)
T2 construct: endogenous in cells; host or cells: primary rat cortical neurons
T2 sequence (P15387 1-857): T1 sequence (P15387 1-857)

[2] = 3 μM peptide, two-hour treatment, mean±SEM (FIG. 2B)
[3] = 10 μM peptide, two-hour treatment, mean±SEM (FIG. 2B)
[4] = 10 μM peptide + TBOA (60 μM), 3-5 hours after treatment

YGRKKRRQRRRDFSSIST [TAT-Sc-2, TAT-linked scramble control peptide]
mean Kv2.1 surface cluster density (Kv2.1 surface clusters; [2]): 0.15±0.01 #Kv2.1 clusters/μm^2 of neuronal soma | mean Kv2.1 surface cluster density (Kv2.1 surface clusters; [3]): 0.16±0.02 #Kv2.1 clusters/μm^2 of neuronal soma | mean Kv2.1-mediated potassium current density [1, 4]: 130.80±9.43 pA/pF | mean Kv2.1-mediated potassium current density ([1]; 10 μM peptide without TBOA): 71.42±10.27 pA/pF

YGRKKRRQRRRSIDSFTS [TAT-DP-2, TAT-linked declustering peptide 2]
mean Kv2.1 surface cluster density (Kv2.1 surface clusters; [2]): 0.07±0.02 #Kv2.1 clusters/μm^2 of neuronal soma | mean Kv2.1 surface cluster density (Kv2.1 surface clusters; [3]): 0.08±0.01 #Kv2.1 clusters/μm^2 of neuronal soma | mean Kv2.1 surface cluster density (Kv2.1 surface clusters; 10 μM, 2 h after initiation of treatment, mean+/-SEM (FIG. 9)): 0.06±0.01 #Kv2.1 clusters/μm^2 of neuronal soma | mean Kv2.1 surface cluster density (Kv2.1 surface clusters; 10 μM, 24 h after initiation of treatment, peptide removed after two hours, mean+/-SEM (FIG. 9)): 0.09±0.01 #Kv2.1 clusters/μm^2 of neuronal soma | time-course of Kv2.1 surface cluster dispersal (Kv2.1 surface clusters; 10 μM, before, 60 and 120 minutes post-treatment (FIG. 8)): time-dependent | concentrations at which effective as in vitro declustering tool (Kv2.1 surface clusters; hypothesized from the 3 μM and 10 μM results): 3 to 10 µM | mean Kv2.1-mediated potassium current density [1, 4]: 65.68±12.07 pA/pF | mean Kv2.1-mediated potassium current density ([1]; 10 μM peptide without TBOA): 66.86±4.76 pA/pF

From patent US11673916B2, “Neuroprotective peptides and methods of their use” (University of Pittsburgh—Of the Commonwealth System of …, priority 2020, dated 2023)
